Test results: IntAct's records for PubMed 11278869

B1: A-kinase anchor protein 3 (Homo sapiens), O75969 (parent)
chain: MSEKVDWLQSQNGVCKVDVYSPGDNQAQDWKMDTSTDPVRVLSWLRRDLEKSTAEFQDVRFKPGESFGGETSNSGDPHKGFSVDYYNTTTKGTPERLHFEMTHKEIPCQGPRAQLGNGSSVDEVSFYANRLTNLVIAMARKEINEKIDGSENKCVYQSLYMGNEPTPTKSLSKIASELVNETVSACSRNAAPDKAPGSGDRVSGSSQSPPNLKYKSTLKIKESTKERQGPDDKPPSKKSFFYKEVFESRNGDYAREGGRFFPRERKRFRGQERPDDFTASVSEGIMTYANSVVSDMMVSIMKTLKIQVKDTTIATILLKKVLLKHAKEVVSDLIDSFLRNLHSVTGTLMTDTQFVSAVKRTVFSHGSQKATDIMDAMLRKLYNVMFAKKVPEHVRKAQDKAESYSLISMKGMGDPKNRNVNFAMKSETKLREKMYSEPKSEEETCAKTLGEHIIKEGLTLWHKTQQKECKSLGFQHAAFEAPNTQRKPASDISFEYPEDIGNLSLPPYPPEKPENFMYDSDSWAEDLIVSALLLIQYHLAQGGRRDARSFVEAAGTTNFPANEPPVAPDESCLKSAPIVGDQEQAEKKDLRSVFFNFIRNLLSETIFKRDQSPEPKVPEQPVKEDRKLCERPLASSPPRLYEDDETPGALSGLTKMAVSQIDGHMSGQMVEHLMNSVMKLCVIIAKSCDASLAELGDDKSGDASRLTSAFPDSLYECLPAKGTGSAEAVLQNAYQAIHNEMRGTSGQPPEGCAAPTVIVSNHNLTDTVQNKQLQAVLQWVAASELNVPILYFAGDDEGIQEKLLQLSAAAVDKGCSVGEVLQSVLRYEKERQLNEAVGNVTPLQLLDWLMVNL
B2: Ropporin-1B (Homo sapiens), Q9BZX4 (parent)
chain: MAQTDKPTCIPPELPKMLKEFAKAAIRAQPQDLIQWGADYFEALSRGETPPVRERSERVALCNWAELTPELLKILHSQVAGRLIIRAEELAQMWKVVNLPTDLFNSVMNVGRFTEEIEWLKFLALACSALGVTITKTLKIVCEVLSCDHNGGLPRIPFSTFQFLYTYIAEVDGEICASHVSRMLNYIEQEVIGPDGLITVNDFTQNPRVWLE

Variants of: B1
Conditions: with rop1b_human ROPN1B, Q9BZX4

Variant | effect of a mutation on the interaction
L131P | decreasing interaction

Variants of: B1
Conditions: with kap2_human PRKAR2A

Variant | effect of a mutation on the interaction
L131P | decreasing interaction

Variants of: B2
Conditions: with akap3_human AKAP3, O75969

Variant | effect of a mutation on the interaction
L18A | decreasing interaction
